Patent US20140017242A1, “ANTI-BRADYKININ B2 RECEPTOR (BKB2R) MONOCLONAL ANTIBODY” (Diamedica, Inc., priority 2010, published 2014)

System: ZDF fa/fa rats
Test: 21-day ZDF fa/fa study: fasting blood glucose
Type: in vivo, rat
Details: for fasting blood glucose level: day 21
Method: Animals. Male ZDF fa/fa rats were obtained from CRL (Kingston, N.Y.). Upon arrival, rats were seven weeks of age. The rats were housed individually per cage in a room with a photo cycle of 12 hours of light and 12 hours of dark and an ambient temperature of 70-72° F. and fed on regular rodent diet and water ad libitum. At the age of eleven weeks, rats were divided into six groups (Table 5) of eight rats per group based on fasting blood glucose levels. A sub-group of four rats per group was maintained in parallel to the main groups and was dosed similarly for twenty-one days for a hyperinsulinemic-euglycemic clamp study. […]
An oral glucose tolerance test (OGTT) was performed on Day 0, 7, 14 and 21 for each group of the study. Plasma samples were collected at each time point during OGTT to also measure insulin levels. Body weight, food and water intake were measured twice a week. Blood pressure and heart rates were monitored on Day 0, 7, 14 and 21 using a non-invasive tail cuff method (with five readings per rat taken and then averaged). Fasting serum samples were collected on Day 0, 7, 14 and 21 before OGTT for determination of triglyceride and total cholesterol level. Urine samples were collected on Day 7 and 14 for the determination of glycosuria. Glycated (Glycosylated) hemoglobin (HbA1c) was measured at the end of the study. Assay kits for these studies were as presented in Table 6, and were used according to the suppliers' instructions.
Fasting blood glucose levels were measured on Day 0, 7, 14 and 21.
The mean change in fasting blood glucose (mg/dL), serum cholesterol (mg/dL) and systolic blood pressure (mm Hg) from baseline (Day 0) to Day 21 was compared between the high-dose (5F12G1, 0.2 mg/kg) and negative control (MG2b-57, 0.2 mg/kg) groups using an analysis of covariance to adjust for baseline levels. The mean HbA1c percentage in high-dose (5F12G1, 0.2 mg/kg) rats was compared to the mean HbA1c percentage for negative control (MG2b-57, 0.2 mg/kg) rats using an unequal-variance, independent two-sample t-test. A significance level of a=0.05 was used for all tests, and all analyses were conducted using SAS statistical software (vs. 9.2, Cary, N.C., U.S.A.).

B1: 5F12G1: murine monoclonal anti-BKB2R antibody (IgG2b,κ), VH comprising SEQ ID NO:1, VL comprising SEQ ID NO:2 (antibody, listed as Mus musculus, V domains shown)
VH: EVKLEESGGGLVQPGGSMKLSCVVSGFTFSDYWMSWVRHSPEMGLEWVAEIRLKSDNYATHYAESVKGRFTISRDDSKSRLYLQINSLRGEDTGIYYCTRDYYAMEYWGQGTSVTVSS
VL: DVVMTQTPLSLPVSLGDQASISCRSSQTIVHSNGKTYLEWYLQKPGQSPKLLIYKVSNRFSGVPDRFSGSGSGTEFTLKISRVETEDLGVYYCFQASHVPYTFGGGTKLEIK
increase of fasting blood glucose from baseline (0.2 mg/kg s.c. every 3 days, Day 0 to Day 21): 33.1 ± 19.7 mg/dL
fasting blood glucose level (0.2 mg/kg s.c. every 3 days, baseline 117.6+/−14.2 (5F12G1), 116.5+/−25.8 (MG2b-57)): approximately 150.8+/−56.5 mg/dl
fasting blood glucose level (second of three values given respectively (0.04 mg/kg s.c. every 3 days)): ~163 ± 21 mg/dL
fasting blood glucose level (third of three values given respectively (0.008 mg/kg s.c. every 3 days)): ~190 ± 40 mg/dL
